According to paper PMC3074572 (2011):

Target: TGFβ1 (Homo sapiens, UniProt P01137)
Sequence (P01137 279-390): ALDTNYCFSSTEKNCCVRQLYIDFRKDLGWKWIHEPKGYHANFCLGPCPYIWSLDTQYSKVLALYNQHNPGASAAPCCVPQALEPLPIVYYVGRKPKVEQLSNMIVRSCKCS

Kd: 10.4 nM
Binder: KRIWFIPRSSWY [KRIWFIPRSSWY peptide]
